Measured values reported in article PMC3665621 (Nuclear medicine and biology, 2013).

Assays:
cathepsin B = details: room temperature, up to 96 hours
[1] = system: HPAC tumor-bearing SCID mice; details: mouse, in vivo

| cleaved bond (cathepsin B) | Substance | increase of tumor accumulation from 24 h to 72 h post-injection [1] [%] | lower liver retention compared to control (177Lu-MAC0) [1] [fold] |
| --- | --- | --- | --- |
| G-G, 24 h | DO3A(tBu)3-G- (D)S(tBu)-(D)S(tBu)-G- G-G-F |  |  |
|  | X = GSS, Y = PMGLP [177Lu-MAC2] | 113 | 2.1 |
